# Source: patent US20230118517A1, “METHODS OF TREATING MULTIPLE MYELOMA” (Seagen Inc., priority 2020, published 2023)
# Tests used:
# [1] = Antitherapeutic antibody (ATA) assessment in patient serum; type: in vivo, human; conditions: all samples tested
# Excerpt: A qualified electrochemiluminescence assay were used to assess ATA.
# [2] = system: MM1R myeloma target cells; assay: PBMC-mediated MM1R target cell killing, first experiment (48 hrs, 3 μM pomalidomide); type: cell-based; conditions: combined with Pomalidomide, benchmarked against elotuzumab and WT-BCMA, N=2
# Method: Experiments were performed to test whether SEA-BCMA combines effectively with pomalidomide in vitro by combining PBMC effector cells with MM1R target cells treated with both pomalidomide and SEA-BCMA or antibody controls. The first experiment (FIG. 12A) benchmarks against MM standard of care elotuzumab and nonfucosylated parent BCMA antibody. The second experiment (FIG. 12B) benchmarks against MM standard of care daratumumab. MM1R target cells express 15,000 copies of BCMA, 12,000 copies of CS1 (elotuzumab target), and 36,000 copies of CD38 (daratumumab target).
# In the first experiment (FIG. 12A), normal donor PBMCs of the FcγRIII V/F genotype were mixed with CFSE (Invitrogen cat #V12883) labeled MM1R myeloma target cells at an effector-to-target cell ratio of 10:1. The mixture was treated with a dose range of the following antibodies: SEA-BCMA, elotuzumab, WT-BCMA (fucosylated parent Ab), or non-binding hIgG1k antibody control (Sigma cat #15154) with or without 3 μM pomalidomide (APEx Bio, cat #A4211). After 48 hrs, the % live MM1R cells were then determined using the viability dye 7-AAD (BD Biosciences, cat #559925) by flow cytometry.
substance,measurement,setting,value
SEA-BCMA: non-fucosylated monoclonal anti-BCMA antibody having heavy chain SEQ ID NO: 13 and light chain SEQ ID NO: 15,anti-SEA-BCMA antibodies,[1],No anti-SEA-BCMA antibodies were found
same,MM1R target cell killing,[2],greater MM1R target cell killing
